Patent US20190300590A1 (PROTAGONIST THERAPEUTICS, published 2019)
Bridges are numbered along the chain shown (N, C = ends). [ ]: non-standard residue; d: D form. Phe(3,4-(OMe)2) = COc1ccc(C[C@H](N)C(=O)O)cc1OC; Phe(4-CONH2) = NC(=O)c1ccc(C[C@H](N)C(=O)O)cc1; 1Nal = N[C@@H](Cc1cccc2ccccc12)C(=O)O; 2Nal = N[C@@H](Cc1ccc2ccccc2c1)C(=O)O; AEF = NCCOc1ccc(C[C@H](N)C(=O)O)cc1; Chg = N[C@H](C(=O)O)C1CCCCC1; Pen = CC(C)(S)[C@H](N)C(=O)O; hLeu = CC(C)CC[C@H](N)C(=O)O; αMeV = CC(C)[C@](C)(N)C(=O)O; Abu = CC[C@H](N)C(=O)O; Aib = CC(C)(N)C(=O)O; PEG1 = NCCOCCC(=O)O; Sar = CNCC(=O)O

B1: Ac-[(D)Lys]-CRDWQCY-[1-Nal]-HTH-[ Sarc]-[AEP]-(D)Arg]-NH2 (peptide)
peptide: Ac-[dK]CRDWQCY[1Nal]HTH[Sar][PEG1][dR]-NH2
modifications: disulfide 2-7
SMILES: CC(=O)N[C@H](CCCCN)C(=O)N[C@H]1CSSC[C@@H](C(=O)N[C@@H](Cc2ccc(O)cc2)C(=O)N[C@@H](Cc2cccc3ccccc23)C(=O)N[C@@H](Cc2c[nH]cn2)C(=O)N[C@H](C(=O)N[C@@H](Cc2c[nH]cn2)C(=O)N(C)CC(=O)NCCOCCC(=O)N[C@H](CCCNC(=N)N)C(N)=O)[C@@H](C)O)NC(=O)[C@H](CCC(N)=O)NC(=O)[C@H](Cc2c[nH]c3ccccc23)NC(=O)[C@H](CC(=O)O)NC(=O)[C@H](CCCNC(=N)N)NC1=O
B2: Ac-Phe-[Pen]-QTWQ-[Pen]-[Phe[4-(2-aminoethoxy)]-[2-Nal]-[Aib]-[Lys(Ac)]-NN-NH2 (peptide)
peptide: Ac-F[Pen]QTWQ[Pen][AEF][2Nal][Aib]K(Ac)NN-NH2
modifications: disulfide 2-7
SMILES: CC(=O)NCCCC[C@H](NC(=O)C(C)(C)NC(=O)[C@H](Cc1ccc2ccccc2c1)NC(=O)[C@H](Cc1ccc(OCCN)cc1)NC(=O)[C@H]1NC(=O)[C@H](CCC(N)=O)NC(=O)[C@H](Cc2c[nH]c3ccccc23)NC(=O)[C@H]([C@@H](C)O)NC(=O)[C@H](CCC(N)=O)NC(=O)[C@@H](NC(=O)[C@H](Cc2ccccc2)NC(C)=O)C(C)(C)SSC1(C)C)C(=O)N[C@@H](CC(N)=O)C(=O)N[C@@H](CC(N)=O)C(N)=O
B3: Ac-(D)Phe-[Pen]-QTWQ-[Pen]-[Phe[4-(2-aminoethoxy)]-[2-Nal]-[Aib]-[Lys(Ac)]-NN-NH2 (peptide)
peptide: Ac-[dF][Pen]QTWQ[Pen][AEF][2Nal][Aib]K(Ac)NN-NH2
modifications: disulfide 2-7
SMILES: CC(=O)NCCCC[C@H](NC(=O)C(C)(C)NC(=O)[C@H](Cc1ccc2ccccc2c1)NC(=O)[C@H](Cc1ccc(OCCN)cc1)NC(=O)[C@H]1NC(=O)[C@H](CCC(N)=O)NC(=O)[C@H](Cc2c[nH]c3ccccc23)NC(=O)[C@H]([C@@H](C)O)NC(=O)[C@H](CCC(N)=O)NC(=O)[C@@H](NC(=O)[C@@H](Cc2ccccc2)NC(C)=O)C(C)(C)SSC1(C)C)C(=O)N[C@@H](CC(N)=O)C(=O)N[C@@H](CC(N)=O)C(N)=O
B4: Ac-(D)Arg-[Pen]-QTWQ-[Pen]-[Phe[4-(2-aminoethoxy)]-[2-Nal]-[Aib]-[Lys(Ac)]-NN-NH2 (peptide)
peptide: Ac-[dR][Pen]QTWQ[Pen][AEF][2Nal][Aib]K(Ac)NN-NH2
modifications: disulfide 2-7
SMILES: CC(=O)NCCCC[C@H](NC(=O)C(C)(C)NC(=O)[C@H](Cc1ccc2ccccc2c1)NC(=O)[C@H](Cc1ccc(OCCN)cc1)NC(=O)[C@H]1NC(=O)[C@H](CCC(N)=O)NC(=O)[C@H](Cc2c[nH]c3ccccc23)NC(=O)[C@H]([C@@H](C)O)NC(=O)[C@H](CCC(N)=O)NC(=O)[C@@H](NC(=O)[C@@H](CCCNC(=N)N)NC(C)=O)C(C)(C)SSC1(C)C)C(=O)N[C@@H](CC(N)=O)C(=O)N[C@@H](CC(N)=O)C(N)=O
B5: Ac-CADWVCY-[1-Nal]-VTFG-NH2 (peptide)
peptide: Ac-CADWVCY[1Nal]VTFG-NH2
modifications: disulfide 1-6
SMILES: CC(=O)N[C@H]1CSSC[C@@H](C(=O)N[C@@H](Cc2ccc(O)cc2)C(=O)N[C@@H](Cc2cccc3ccccc23)C(=O)N[C@H](C(=O)N[C@H](C(=O)N[C@@H](Cc2ccccc2)C(=O)NCC(N)=O)[C@@H](C)O)C(C)C)NC(=O)[C@H](C(C)C)NC(=O)[C@H](Cc2c[nH]c3ccccc23)NC(=O)[C@H](CC(=O)O)NC(=O)[C@H](C)NC1=O

Legend:
[1] = target: T1, IL23R_huFC (human, UniProt Q5VWK5 24-353); test: IL23-IL23R competitive ELISA
T1 sequence (looked up): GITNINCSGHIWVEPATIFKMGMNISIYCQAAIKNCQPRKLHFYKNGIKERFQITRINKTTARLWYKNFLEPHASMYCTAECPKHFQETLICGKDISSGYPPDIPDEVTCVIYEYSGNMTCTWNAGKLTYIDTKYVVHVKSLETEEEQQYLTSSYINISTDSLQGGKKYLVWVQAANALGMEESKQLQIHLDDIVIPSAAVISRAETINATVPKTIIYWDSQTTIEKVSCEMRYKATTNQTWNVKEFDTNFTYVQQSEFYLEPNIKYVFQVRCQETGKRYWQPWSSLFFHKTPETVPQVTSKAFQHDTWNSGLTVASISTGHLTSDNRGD

[2] = target: T2, IL23R_huFC (human, UniProt Q5VWK5 24-353); test: human ELISA vs IL-23
T2 sequence (looked up): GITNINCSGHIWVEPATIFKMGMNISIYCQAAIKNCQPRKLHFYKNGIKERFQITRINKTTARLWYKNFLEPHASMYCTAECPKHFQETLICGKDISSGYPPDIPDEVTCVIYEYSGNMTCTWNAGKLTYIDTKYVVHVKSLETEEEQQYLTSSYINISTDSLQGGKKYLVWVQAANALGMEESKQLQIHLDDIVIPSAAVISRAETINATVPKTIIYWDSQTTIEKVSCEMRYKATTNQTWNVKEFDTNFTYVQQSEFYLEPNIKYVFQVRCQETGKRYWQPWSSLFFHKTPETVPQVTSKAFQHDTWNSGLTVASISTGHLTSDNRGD

[3] = target: T3, IL-23R on DB cells (human, UniProt Q5VWK5 24-629); test: cell-based or functional assay
T3 sequence (looked up): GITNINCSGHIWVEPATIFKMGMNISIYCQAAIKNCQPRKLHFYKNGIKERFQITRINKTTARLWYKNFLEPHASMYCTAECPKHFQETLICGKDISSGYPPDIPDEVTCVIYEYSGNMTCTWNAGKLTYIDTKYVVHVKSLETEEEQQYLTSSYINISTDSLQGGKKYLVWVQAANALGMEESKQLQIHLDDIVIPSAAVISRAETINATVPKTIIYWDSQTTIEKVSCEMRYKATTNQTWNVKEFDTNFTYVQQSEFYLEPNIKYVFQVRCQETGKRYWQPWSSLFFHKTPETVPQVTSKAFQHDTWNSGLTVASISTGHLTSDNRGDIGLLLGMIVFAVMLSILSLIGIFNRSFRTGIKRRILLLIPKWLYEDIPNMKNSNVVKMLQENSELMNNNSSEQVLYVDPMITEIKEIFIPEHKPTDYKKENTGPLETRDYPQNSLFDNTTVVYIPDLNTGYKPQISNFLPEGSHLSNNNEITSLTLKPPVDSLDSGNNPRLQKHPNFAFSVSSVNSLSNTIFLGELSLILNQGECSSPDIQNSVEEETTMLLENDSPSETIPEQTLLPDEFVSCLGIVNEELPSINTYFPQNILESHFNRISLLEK

Binder | IC50 [1] [nM] | also measured
Ac-GSVHCMTWECYWHTFG-NH2 (disulfide 5-10 (inferred)) [Ac-GSVHCMTWECYWHTFG-NH2] | 500 to 1000 | 
Ac-CADWVCYWHEFG-NH2 (disulfide 1-6 (inferred)) [Ac-CADWVCYWHEFG-NH2] | 500 to 1000 | 
H-CTDWKCYWHEFG-NH2 (disulfide 1-6 (inferred)) [Hy-CTDWKCYWHEFG-NH2] | 500 to 1000 | 
Ac-CRDWVCYWHTFG-NH2 (disulfide 1-6 (inferred)) [Ac-CRDWVCYWHTFG-NH2] | 500 to 1000 | 
Ac-[Abu]QTWQCYW[hLeu]ENG-NH2 (thioether 1-6) [Ac-Cyclo-[[Abu]-QTWQC]-YW-[hLeu]-ENG-NH2] |  | IC50 [2]: 25 to 100 nM
Ac-CADWVCYWHNHSEGSG-NH2 (disulfide 1-6 (inferred)) [Ac-CADWVCYWHNHSEGSG-NH2] | 500 to 1000 | 
H-CSDWVCYWHVYG-NH2 (disulfide 1-6 (inferred)) [Hy-CSDWVCYWHVYG-NH2] | 500 to 1000 | 
CADWVCYXHTFG ([2-Nal]; -NH2; disulfide) [Hy-CADWVCY-[2-Nal]-HTFG-NH2] | 500 to 1000 | 
H-CTTWKCYWHQYG-NH2 (disulfide 1-6 (inferred)) [Hy-CTTWKCYWHQYG-NH2] | 500 to 1000 | 
Ac-GGVECNDWQCYWHTFG-NH2 (disulfide 5-10 (inferred)) [Ac-GGVECNDWQCYWHTFG-NH2] | 500 to 1000 | 
Ac-CADWVCYWHFHQLRDA-NH2 (disulfide 1-6 (inferred)) [Ac-CADWVCYWHFHQLRDA-NH2] | 500 to 1000 | 
Ac-CADWVCYWHRSTGGQH-NH2 (disulfide 1-6 (inferred)) [Ac-CADWVCYWHRSTGGQH-NH2] | 500 to 1000 | 
B1 | 500 to 1000 | 
H-CSNWECYWHHYG-NH2 (disulfide 1-6 (inferred)) [Hy-CSNWECYWHHYG-NH2] | 500 to 1000 | 
CADWVCYXHTFG ([1-Nal]; -NH2; disulfide) [Hy-CADWVCY-[1-Nal]-HTFG-NH2] | 500 to 1000 | 
B2 |  | pStat3 HTRF IC50 [3]: < 10 nM

Binder | IC50 [1] [nM] | also measured
Ac-[Pen]QTWQ[Pen][Phe(4-CONH2)][Phe(3,4-(OMe)2)][αMeV]K(Ac)NN-NH2 (disulfide 1-6 (inferred)) [Ac-[Pen]-QTWQ[Pen]-[Phe(4-CONH2)]-[Phe(3,4-OMe2)]-[α-MeVal]-[Lys(Ac)]-NN-NH2] |  | pStat3 HTRF IC50 [3]: 10 to 25 nM
H-CADWVCYWHTFG-NH2 (disulfide 1-6 (inferred)) [Hy-CADWVCYWHTFG-NH2] | 500 to 1000 | 
XXQTWQXFXXKNN (Ac; 2-Nal twice; Pen-Pen disulfide; Phe[4-(2-aminoethoxy)]; Aib; Lys(Ac); NH2) [Ac-[2-Nal]-[Pen]-QTWQ-[Pen]-[Phe[4-(2-aminoethoxy)]-[2-Nal]-[Aib]-[Lys(Ac)]-NN-NH2] |  | pStat3 HTRF IC50 [3]: < 10 nM
Ac-TQFDCRTWECYWHTFG-NH2 (disulfide 5-10 (inferred)) [Ac-TQFDCRTWECYWHTFG-NH2] | 500 to 1000 | 
B3 |  | pStat3 HTRF IC50 [3]: < 10 nM
H-CRTWTCYWHVYG-NH2 (disulfide 1-6 (inferred)) [Hy-CRTWTCYWHVYG-NH2] | 500 to 1000 | 
Ac-DTPRCRTWECYWHTFG-NH2 (disulfide 5-10 (inferred)) [Ac-DTPRCRTWECYWHTFG-NH2] | 500 to 1000 | 
H-CADWMCYWHEYG-NH2 (disulfide 1-6 (inferred)) [Hy-CADWMCYWHEYG-NH2] | 500 to 1000 | 
B4 |  | pStat3 HTRF IC50 [3]: < 10 nM
Ac-[Abu]QTWQC[AEF]W[Chg]K(Ac)NG-NH2 (thioether 1-6) [Ac-Cyclo-[[Abu]-QTWQC]-[Phe[4-(2-aminoethoxy)]]-W-Chg-[Lys(Ac)]-NG-NH2] |  | IC50 [2]: 25 to 100 nM
Ac-REGTCSTWKCYWHTFG-NH2 (disulfide 5-10 (inferred)) [Ac-REGTCSTWKCYWHTFG-NH2] | 500 to 1000 | 
H-CPNWECYWHRFG-NH2 (disulfide 1-6 (inferred)) [Hy-CPNWECYWHRFG-NH2] | 500 to 1000 | 
Ac-GDHKCSSWECYWHTFG-NH2 (disulfide 5-10 (inferred)) [Ac-GDHKCSSWECYWHTFG-NH2] | 500 to 1000 | 
B5 | 500 to 1000 | 
Ac-GGGECENWECYWHTFG-NH2 (disulfide 5-10 (inferred)) [Ac-GGGECENWECYWHTFG-NH2] | 500 to 1000 | 
Ac-CADWVCYWHEHSERVG-NH2 (disulfide 1-6 (inferred)) [Ac-CADWVCYWHEHSERVG-NH2] | 500 to 1000 | 
